From the supplement of paper PMC9170038

Test system: K4 kissing-loop RNA reporter
Experiment: apparent KD of K4 kissing-loop reporter; higher = weaker reporter binding
Conditions: Eterna round: R107
Procedure: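 RNA-MaP round R107: designed RNA switches with theophylline, tryptophan, arginine or FMN aptamers are transcribed on-chip within common flanks. They are titrated with a labelled K4 kissing-loop RNA reporter in RNA-MaP buffer (100 mM Tris pH 7.5, 80 mM KCl, 4 mM MgCl2), without ligand or with the indicated ligand. Median apparent KD per design.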

[1] = input ligand: theophylline 20 uM
[2] = input ligand: tryptophan 2.4 mM
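Further: bound reporter read as fluorescence of individual clusters on recovered sequencing chips by microscopy, with normalized cluster intensities fitted with a binding model.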

Sequence | apparent KD of K4 kissing-loop reporter (input ligand: FMN 200 uM) | apparent KD of K4 kissing-loop reporter (input ligand: arginine 13.2 mM) | apparent KD of K4 kissing-loop reporter (input ligand: none) | apparent KD of K4 kissing-loop reporter [1] | apparent KD of K4 kissing-loop reporter [2]
GCAUCCAUGGCAGGAUAUAGGUUCGUGGAGUGAUGUUCCAUAGCCCGAGUGAUGUUCGUUAUCCGCCUAGAAGGGCCAUGGAUGC [whbob_Ex_FMNB__2th213] | 0.247 µM | 0.192 µM | 0.227 µM | 0.219 µM | 0.203 µM
GCAUCGAUGGCAGGAUAUAGGUUCGUGGAGUGAUGUUCCAUAGCCCGAGUGAUGUUCGUUAUCCGCCUAGAAGGGCCGUGGAUGC [whbob_Ex_FMNB__2th215] | 0.263 µM | 0.21 µM | 0.297 µM | 0.221 µM | 0.244 µM
GCCAGAUAGACGGCCGCCACUUAUAAGUUUCAGUGAUGUUGGAACGGCAAAUGCCGAACACAAUAGAGGACCGGGUCAACUGGCG [Same State Tryptophan B GF 1] | 0.92 µM | 0.591 µM | 0.835 µM | 0.901 µM | 0.639 µM
GCCGCAAGGCUAGCAGCAAUAGGCGCUCGCUAGGAUAUCUGGAAACAGAGAAGGAGCUGGAGUGAUGUUUUACCUCCUUGUUAUU | 1 µM | 0.735 µM | 0.95 µM | 0.814 µM | 0.657 µM
GCCGUACGCAUGGAUACCAGAUGGCACUAUUUUCUCCCAGAGUGAUGUUCUGGCCUGCCUAUCCCUUGGCAGCCAUGCGUACGGC | 0.806 µM | 0.616 µM | 0.8 µM | 0.488 µM | 0.671 µM
GCCGUACGCAUGGAUACCAGCAGAACUGCCCUCCCAGUGAUGUUGGGAGGAUCUUUCCUUUGCCCUUGGCAGCCAUGCGUACGGC | 0.126 µM | 0.112 µM | 0.124 µM | 0.0848 µM | 0.117 µM
GCCGUACGCAUGGAUACCAGUCUAAGAGUGAUGUUCUUACCGAUUGCGCCUGGAUCAUUAGACCCUUGGCAGCCAUGCGUACGGC | 0.155 µM | 0.117 µM | 0.126 µM | 0.148 µM | 0.146 µM
GCCGUACGCAUGGAUACCAGUCUUAGAGUGAUGUUCUAAUCGAUUGCGCCUGGAUCAAUGGACCCUUGGCAGCCAUGCGUACGGC | 0.129 µM | 0.0973 µM | 0.12 µM | 0.125 µM | 0.112 µM
GCCGUACGCAUGGAUACCAGUUGCGAAGUGAUGUUUCGGGCGAUCAAAGGAUCGCCCUACAACCCUUGGCAGCCAUGCGUACGGC | 0.158 µM | 0.0673 µM | 0.122 µM | 0.204 µM | 0.12 µM
GCCGUAGAUGGAAGGAGCGUGGUGGACUCGUGAAGUGAUGUUUCAAGUCGAUAUGCCCAACCACAGGUAGGUCGCCAUCUACGGC | 0.206 µM | 0.161 µM | 0.169 µM | 0.198 µM | 0.174 µM
GCCGUAGAUUGAAGGAGCGGGAGAGGGAAAGUGAUGUUUUCUCUAUGACGGCGUCCUCGAUCCCAGGUAGGUCGCAAUCUACGGC | 0.137 µM | 0.0807 µM | 0.0997 µM | 0.0803 µM | 0.105 µM
GCCGUAGAUUGAAGGAGCGUUCUUACUGAGUACGGCAACCGGAAGUGAUGUUUCCAGGUGGAACAGGUAGGUCGCAAUCUACGGC | 0.102 µM | 0.0874 µM | 0.105 µM | 0.088 µM | 0.0939 µM
GCGCGUCAUGUCAGCGGUGACACUGUCGAUACCAGUGCCGGAAGGCGCCCUUGGCAGCGACGUGCUGGAGUGAUGUUCCAGCGUU [#2 Exclusion - Theophylline A Attempt #28 (HarryS)] | 0.136 µM | 0.128 µM | 0.151 µM | 0.131 µM | 0.13 µM
GCGCGUGUUAAAGGAUAUAGCAGGUGAUACAAGAAAGUGAGUGAUGUUUAUGUAGAUGAUGAUAUGUUAGAAGGUUAACACGCGC [abcdefghijklmnopqr] | 0.784 µM | 0.635 µM | 0.966 µM | 0.688 µM | 0.629 µM
GCGGCGGGCCAAGGAUAUAUUUUGGAGUGAUGUUGUUCAUUUAUUUGAGCUAGUGAUGUUGGUCGAAUAGAAGGUGGCCCGCCGC [whbob_Ex_FMNB__2th219] | 0.0658 µM | 0.0294 µM | 0.0569 µM | 0.0359 µM | 0.046 µM
GCGUAGAUUAGCAGUGAUGUUGCUACGGAAGGAGCGCGUGAAAACGCAGGUAGGUCGCCGACAAAAUUAAUUUUAAUGUCUGCGC [KL-SSArg-A6] | 0.469 µM | 0.448 µM | 0.596 µM | 0.423 µM | 0.365 µM
GCUAGUUUGGAAGGAUAUUCGUGCGAUCAAGUCAAACUUUACUGAGGGCGUUUUGGAGUGAUGUUCGAAGAAGGUCCCUUACUUA [theeternabot_exclusion_KL_FMN_B_28] | 1.4 µM | 0.816 µM | 0.999 µM | 0.664 µM | 0.758 µM

Sequence | apparent KD of K4 kissing-loop reporter (input ligand: FMN 200 uM) | apparent KD of K4 kissing-loop reporter (input ligand: arginine 13.2 mM) | apparent KD of K4 kissing-loop reporter (input ligand: none) | apparent KD of K4 kissing-loop reporter [1] | apparent KD of K4 kissing-loop reporter [2]
GCUCAGGAGUGAUGUUCCUAGUGAUGUUAACGAGGACCGGUACGGCCGCCACUCGAUACGGCCGGACCGUAGGAUAAACUAGAGC [Same State - Tryptophan A (Freestyle 10)] | 0.292 µM | 0.238 µM | 0.261 µM | 0.351 µM | 0.34 µM
GGAAGAAGUGGUGUUGAUUAAGAAGCGGAAGGAGCGCCGAAGAAGGCAGGUAGGUCGCCGAAAUAUAGUGAUGUUAUAUAAAAGG [ExArg.A] | 0.168 µM | 0.17 µM | 0.229 µM | 0.168 µM | 0.199 µM
GGAAGACACCUGAGUGAUGUUCGGGUGUGCCGAGGACCGGUACGGCCGCCACUCGGGUGGUACAGUUACUGAUUGGACCGCUAUC [Arbirace] | 0.127 µM | 0.203 µM | 0.275 µM | 0.603 µM | 0.204 µM
GGAGAGAACUGAAGGAGCGGCAAGAGAGAAGGAAAUAUAGUGAUGUUAUAUAAGAGAGAGAGCCAGGUAGGUCGCAGAGGGAGGA [ExArgB.A] | 0.201 µM | 0.153 µM | 0.147 µM | 0.164 µM | 0.149 µM
GGAGGCUAUGCAGGAUAUAGUCGGUUGAGUGAUGUUUAACGACUAAACCUUCUAAGUCACAGCCCGCUAGAAGGGCAUAGCCUCC | 0.427 µM | 0.225 µM | 0.258 µM | 0.229 µM | 0.266 µM
GGAGGGAUCUCGGCCGCCACUCGUAAGAAAUGGGCCUCAGGGAUAUAGUGAUGUUAUGUAAAGAAGAGGACCGGGAGAAAGAAGG [ExTryptoB.Dd] | 0.222 µM | 0.208 µM | 0.247 µM | 0.306 µM | 0.209 µM
GGAGUUACCUGGGAUACCAGUCGGAGGCCCAGAGCUCGGAGUGAUGUUCUGGGAUGUUUCGGCCCUUGGCAGCUCUGGGUCUCCG [#2 Exclusion - Theophylline B Attempt #4 (HarryS)] | 0.822 µM | 0.452 µM | 0.583 µM | 0.648 µM | 0.571 µM
GGAGUUACCUGGGAUACCAGUCGGAGUCCUAGAGCUCGGAGUGAUGUUCUGGGAUGUUUCGGCCCUUGGCAGCUCUGGGACUCCC [#2 Exclusion - Theophylline B Attempt #11 (HarryS)] | 0.615 µM | 0.47 µM | 0.949 µM | 0.921 µM | 0.63 µM
GGAGUUACCUGGGAUACCAGUCGGAGUCUCAGAGCUCGGAGUGAUGUUCUGGGAUGUUUCGGCCCUUGGCAGCUCUGGGACUCCU [#2 Exclusion - Theophylline B Attempt #17 (HarryS)] | 0.698 µM | 0.569 µM | 0.747 µM | 0.788 µM | 0.512 µM
GGAUAGGACACAGGAUAUGGGCUAGGCAAGAAUAACUUGUCUAGCAAAUCCAUGAGGAGUGAUGUUCCAGAAGGGUGUCCUAUCG [FmnBX 1 C11+G75] | 0.431 µM | 0.111 µM | 0.0949 µM | 0.0973 µM | 0.0867 µM
GGAUAGGACAGAGGAUAUCUCUGAGGCAAGAAAACUUGUCUCUAAAGAGAUGACUCAGUGAUGUUGAGAGAAGGCUGUCCUAUCG [FmnBX 9 - #SwitchBubble #StaticStem] | 0.211 µM | 0.143 µM | 0.152 µM | 0.155 µM | 0.148 µM
GGAUAGGAUAGAGGAUAUGGAAAACACAGAAAUAACUUGUUGUGUUUAUCCAUAGGGAGUGAUGUUCCAGAAGGCUGUCCUAUCG [MatMod 20 - Jieux - Exclusion - FMN B] | 0.284 µM | 0.2 µM | 0.192 µM | 0.219 µM | 0.151 µM
GGAUAGGAUAGAGGAUAUGGAUUAGGCAAGAAUAACUUGUCUUGUAAAUCCAUGAGGAGUGAUGUUCCAGAAGGCUGUCCUAUCG [MatMod 6 - Jieux - Exclusion - FMN B] | 0.233 µM | 0.113 µM | 0.116 µM | 0.117 µM | 0.0943 µM
GGAUAGGAUAGAGGAUAUGGGCUAGGCAAGAAUAACUUGUCUAGCAAAUCCAUGAGGAGUGAUGUUCCAGAAGGCUGUCCUAUCG [FmnBX 1 U9] | 0.901 µM | 0.169 µM | 0.152 µM | 0.211 µM | 0.128 µM
GGAUCCACCAGUGAUGUUGGAGAAAACUUCAAGGAUAUGACGAAAGUCAGAAGGUGGUAGACUGGACAAAGUCCGGUGGGAUCCA [FmnA10 U29+G78] | 0.622 µM | 0.214 µM | 0.264 µM | 0.566 µM | 0.198 µM
GGAUUGCCAGUGAUGUUGGCAUAAACUGAAGGAGCGCGUGAAAACGCAGGUAGGUCGCAGAACCUUGCCAACUAUUUUAUUUACC [Ex Arginine A K4 23] | 0.0893 µM | 0.118 µM | 0.0979 µM | 0.103 µM | 0.0798 µM
